Patent US20180051082A1

Columns and labels:
[1] = target: cynomolgus FcRn (cynomolgus monkey) (UniProt Q8SPV9); experiment: BIACORE-based assay, antibody bound to FcRn at pH 6.0, residual bound antibody after adjustment to pH 7.4
human FcRn (human) = human FcRn (human) (UniProt P55899); experiment: as above
human FcRn (human), sequence (P55899 24-297 limits assumed, chain 1 of 2): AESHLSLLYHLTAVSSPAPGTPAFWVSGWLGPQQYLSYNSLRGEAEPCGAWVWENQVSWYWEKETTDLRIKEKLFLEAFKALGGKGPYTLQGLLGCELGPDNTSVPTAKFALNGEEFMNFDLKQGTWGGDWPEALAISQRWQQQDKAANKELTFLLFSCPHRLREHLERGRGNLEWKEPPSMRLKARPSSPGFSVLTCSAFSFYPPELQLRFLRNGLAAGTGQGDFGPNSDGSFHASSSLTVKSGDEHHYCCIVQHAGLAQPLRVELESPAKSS
human FcRn (human), sequence (P61769 21-119 limits assumed, chain 2 of 2, further chain): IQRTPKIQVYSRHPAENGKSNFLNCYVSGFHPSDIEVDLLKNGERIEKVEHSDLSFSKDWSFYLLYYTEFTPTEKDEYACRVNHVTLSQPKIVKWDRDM

cynomolgus FcRn (cynomolgus monkey), sequence (Q8SPV9 24-297): as the sequence (P55899 24-297 limits assumed, chain 1 of 2) above, with N39D, E44Q, G99S, S189G, S190N, L217M, S269T counted along it

human IgG1 version of BMS-936558, designated BMS (antibody)
% Residual Binding at pH 7.4 [1]: 1.7% | % Residual Binding at pH 7.4 (human FcRn (human)): 2%
